Results published in publication PMC4108065, “Inflammation and pancreatic cancer: molecular and functional interactions between S100A8, S100A9, NT-S100A8 and TGFβ1” (Cell Communication and Signaling : CCS, 2014).
“And” between values parts separate entries of the source, which are not always exact repeats. Equal entries are not always repeated. Blank lines part the entries; values can stand above or below the molecule they belong to.

What was measured:
[1] = Degradation of the 2280 m/z peptide in Capan1 conditioned media (MALDI-TOF/MS); format: in vitro ADME, human; details: 37°C
Procedure: (§1) To obtain BxPC3 and Capan1 conditioned media (CM), 400,000 cells were cultured (75 cm^2 flasks) for 96 hours in RPMI supplemented with 1% FCS and 0.1% gentamycin. In parallel, Ukrain (Nowicky Pharma, Wien, Austria) treated Capan1 CM were obtained as above, the difference being that Ukrain was added 24 hours after cells had been seeded at the final concentration of 5 μM. Complete culture media maintained in a cell culture incubator for 96 hours (negative control), Capan1 and Ukrain-treated Capan1 CM were centrifuged at 1,500 rpm for 10 min, and then immediately mixed with 3 μM S100A8 or 2.5 μM S100A9 (ProSpec-Tany TechnoGene, Ness Ziona, Israel) and maintained at 37°C overnight before MALDI-TOF/MS analyses. Complete culture media, BxPC3 and Capan1 CM, treated as described above, were incubated at 37°C with 200 μM of the S100A8 1–19 N-terminal aminoacid sequence (NT-S100A8) (Primm, Milano, Italy) for 1, 2, 3, 4, 5, 6, 12 and 24 hours before MALDI-TOF/MS analyses. At least three independent sets of experiments were performed for both assays.
(§2) Cell culture media were first desalted and purified by ZipTip C18 pipette tips, following the procedure described in the ZipTip user’s guide. […]

[2] = Degradation of the 2280 m/z peptide in BxPC3 conditioned media (MALDI-TOF/MS); format: in vitro ADME, human; details: 37°C
Procedure: as §1, §2

[3] = Stability of the 2280 m/z peptide in non-conditioned media (MALDI-TOF/MS); format: in vitro ADME; details: 200 μM, 37°C, time 0, MALDI-TOF/MS
Procedure: as §1, §2

[4] = target: the molecule itself; assay: MALDI-TOF/MS of mixtures (linear positive ion mode); proteins and CaCl2 mixed at equimolar concentration (11.3 μM) in aqueous solution, incubated overnight at 37°C, diluted 1/10 in 0.1% TFA, sinapinic acid matrix
S100A9, P06702 = target: T1, S100A9, P06702; assay: as above; details: remark: other sources report otherwise
T1 chain: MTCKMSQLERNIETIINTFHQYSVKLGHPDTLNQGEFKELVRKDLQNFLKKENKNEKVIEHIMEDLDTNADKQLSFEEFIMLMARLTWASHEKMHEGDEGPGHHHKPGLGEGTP

Molecule: 2280 m/z peptide: synthesized 1–19 N-terminal aminoacid sequence of S100A8, released by Capan1 conditioned medium (MLTELEKALNSIIDVYHKY; UniProt P05109 1-19, looked up, fragment)
time of degradation of the parental 2280 m/z peptide ([1]; 200 μM peptide in Capan1 conditioned media (96 h, RPMI 1% FCS), MALDI-TOF/MS, TIC normalized): 2 h
parental 19 aminoacid peptide after 24 hours' incubation ([1]; 200 μM, Capan1 conditioned media, 24 hours, MALDI-TOF/MS 650–3000 m/z): disappeared
time of degradation of the parental 2280 m/z peptide ([2]; 200 μM peptide in BxPC3 conditioned media (96 h, RPMI 1% FCS), MALDI-TOF/MS, TIC normalized): 12 h
parental 19 aminoacid peptide after 24 hours' incubation ([2]; 200 μM, BxPC3 conditioned media, 24 hours, MALDI-TOF/MS 650–3000 m/z): disappeared
abundance of the parental peptide at 2280 m/z (TIC normalized) [3]: 0.99

B1: S100A8 (natural protein, UniProt P05109 1-93, looked up)
chain: MLTELEKALNSIIDVYHKYSLIKGNFHAVYRDDLKKLLETECPQYIRKKGADVWFKELDINTDGAVNFQEFLILVIKMGVAAHKKSHEESHKE
notes: Commercial recombinant protein; source: bought: ProSpec-Tany TechnoGene
stoichiometry N [4]: 2

stoichiometry N (S100A9, P06702): 2 and 3
B2: S100A9, P06702 1-114 (natural protein)
chain: T1 chain
